Assay [1] deals with T1, human apical domain of CD71 (human, UniProt P02786 189-383, limits assumed).
T1 construct: domain: apical domain
The assay is described as follows: primary ELISA; further: test concentration or dose not given here; signal over HSA control. Background: An ELISA detects its analyte on a solid surface through an enzyme-linked reagent.

In assay [2] the target is T2, human CD71 extracellular domain (human, UniProt P02786 89-760).
T2 construct: also called hCD71; CD71-ECD
Nature of the assay: primary ELISA; signal over HSA control. Further: test concentration or dose not given here.

Assay [3] has as its target T1, human apical domain of CD71. Nature of the assay: primary ELISA. Further: test concentration or dose not given here.
For assay [4], the target named is T2, human CD71 extracellular domain. The assay is described as follows: primary ELISA. Further: test concentration or dose not given here.

T2 sequence (P02786 89-760): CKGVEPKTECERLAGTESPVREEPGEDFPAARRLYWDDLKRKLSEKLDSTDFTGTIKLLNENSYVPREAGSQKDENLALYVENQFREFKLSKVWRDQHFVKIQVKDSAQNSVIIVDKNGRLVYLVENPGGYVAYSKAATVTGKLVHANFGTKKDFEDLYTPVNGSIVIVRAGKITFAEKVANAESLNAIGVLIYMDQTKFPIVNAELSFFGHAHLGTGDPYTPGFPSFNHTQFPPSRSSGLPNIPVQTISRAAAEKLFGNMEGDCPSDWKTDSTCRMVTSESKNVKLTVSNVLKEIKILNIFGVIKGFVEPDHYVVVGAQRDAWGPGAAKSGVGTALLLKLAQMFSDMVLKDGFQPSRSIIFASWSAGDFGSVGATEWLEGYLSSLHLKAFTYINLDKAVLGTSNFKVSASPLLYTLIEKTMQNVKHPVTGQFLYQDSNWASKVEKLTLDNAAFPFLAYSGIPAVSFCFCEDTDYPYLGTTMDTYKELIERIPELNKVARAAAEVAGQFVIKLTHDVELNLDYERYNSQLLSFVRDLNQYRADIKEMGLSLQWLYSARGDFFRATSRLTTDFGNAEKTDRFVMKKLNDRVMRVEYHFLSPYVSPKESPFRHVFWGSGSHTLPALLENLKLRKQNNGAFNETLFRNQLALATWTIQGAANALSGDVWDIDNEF
T1 sequence (P02786 189-383 limits assumed): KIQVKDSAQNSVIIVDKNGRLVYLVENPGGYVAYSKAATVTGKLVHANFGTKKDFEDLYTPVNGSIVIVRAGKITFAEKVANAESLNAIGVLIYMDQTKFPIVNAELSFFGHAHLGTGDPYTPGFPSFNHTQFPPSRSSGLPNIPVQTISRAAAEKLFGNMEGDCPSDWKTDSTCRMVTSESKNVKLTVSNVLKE

B1: CD71-binding FN3 domain SEQ ID NO 379 (designed binder)
chain: MLPAPKNLVVSRVTEDSARLSWTAPDAAFDSFYIEYWEGYRSGEAIVLTVPGSERSYDLTGLKPGTEYRVHIWGVKGGAVSYPLSAIFTT
As for B1, in assay [1], the “Apical domain:HSA” value is 239 ratio. Besides, the “hCD71:HSA” value in assay [2] worked out at 65 ratio. The RLU is 5.13e+06 RLU in assay [3] and 1.4e+06 RLU in assay [4].

B2: CD71-binding FN3 domain SEQ ID NO 437 (designed binder)
chain: MLPAPKNLVVSRVTEDSARLSWTAPDAAFDSFFIGYLEPQPPGEAISLWVPGSERSYDLTGLKPGTEYNVTIQGVKGGFPSTPLSAKFTT
B2: the “Apical domain:HSA” value in assay [1] stood at 147 ratio. For the same molecule, the “hCD71:HSA” value in assay [2] amounted to 168 ratio. The RLU came to 2.82e+06 RLU in assay [3] and 3.22e+06 RLU in assay [4].

B3: CD71-binding FN3 domain SEQ ID NO 441 (designed binder)
chain: MLPAPKNLVVSRVTEDSARLSWTAPDAAFDSFFIGYLEPQPPGEAILLWVPGSERSYDLTGLKPGTEYNVTIQGVKGGFPSDPLIANFTT
Consider B3, for which the “Apical domain:HSA” value in assay [1] came out at 31 ratio. In addition, the “hCD71:HSA” value in assay [2] was 32 ratio. The RLU worked out at 5.74e+06 RLU in assay [3] and 5.92e+06 RLU in assay [4].

B4: CD71-binding FN3 domain SEQ ID NO 445 (designed binder)
chain: MLPAPKNLVVSRVTEDSARLSWTAPDAAFDSFFIGYLEPQPPGEAIHLFVPGSERSYDLTGLKPGTEYNVTIQGVKGGFPSDPLVASFTT
Take B4: in assay [1], the “Apical domain:HSA” value came out at 77 ratio. Besides, the “hCD71:HSA” value in assay [2] came out at 76 ratio. Further, the RLU in assay [3] was determined as 6.73e+06 RLU; in assay [4], 6.65e+06 RLU.

B5: CD71-binding FN3 domain SEQ ID NO 439 (designed binder)
chain: MLPAPKNLVVSRVTEDSARLSWTAPDAAFDSFFIGYLEPQPPGEAIHLFVPGSERSYDLTGLKPGTEYNVTIQGVKGGFPSVPLNAYFTT
Take B5: the “Apical domain:HSA” value in assay [1] worked out at 258 ratio. Further, in assay [2], the “hCD71:HSA” value was determined as 215 ratio. Further, the values for the RLU in assay [3] and in assay [4] were 6.56e+06 RLU and 5.47e+06 RLU, respectively.

B6: CD71-binding FN3 domain SEQ ID NO 443 (designed binder)
chain: MLPAPKNLVVSRVTEDSARLSWTAPDAAFDSFFIGYLEPQPPGEAIELYVPGSERSYDLTGLKPGTEYNVTIQGVKGGFPSDPLHAAFTT
On to B6, for which the “Apical domain:HSA” value in assay [1] was determined as 116 ratio. Besides, in assay [2], the “hCD71:HSA” value worked out at 142 ratio. Moreover, the RLU in assay [3] amounted to 4.4e+06 RLU; in assay [4], 5.38e+06 RLU.

B7: CD71-binding FN3 domain SEQ ID NO 438 (designed binder)
chain: MLPAPKNLVVSRVTEDSARLSWTAPDAAFDSFFIGYLEPQPPGEAIDLWVPGSERSYDLTGLKPGTEYNVTIQGVKGGFPSYPLLAIFTT
On to B7, for which the “Apical domain:HSA” value in assay [1] turned out to be 161 ratio. The “hCD71:HSA” value in assay [2] was found to be 143 ratio. In addition, the RLU amounted to 5.59e+06 RLU in assay [3] and 4.96e+06 RLU in assay [4].

B8: CD71-binding FN3 domain SEQ ID NO 362 (designed binder)
chain: MLPAPKNLVVSRVTEDSARLSWTAPDAAFDSFEIAYWENNFNGEAIILIVPGSERSYDLTGLKPGTEYVVFISGVKGGTWSYPLVAQFTT
For the molecule B8, the “Apical domain:HSA” value in assay [1] was determined as 102 ratio. In addition, the “hCD71:HSA” value in assay [2] turned out to be 47 ratio. Moreover, the RLU was 4.86e+06 RLU in assay [3] and 2.24e+06 RLU in assay [4].

B9: CD71-binding FN3 domain SEQ ID NO 371 (designed binder)
chain: MLPAPKNLVVSRVTEDSARLSWTAPDAAFDSFDIDYVEFGWTGEAIALLVPGSERSYDLTGLKPGTEYWVWIGGVKGGDYSPPLNAYFTT
For B9, in assay [1], the “Apical domain:HSA” value was 95 ratio. Further, the “hCD71:HSA” value in assay [2] worked out at 45 ratio. The RLU in assay [3] amounted to 4.4e+06 RLU; in assay [4], 2.08e+06 RLU.

B10: CD71-binding FN3 domain SEQ ID NO 370 (designed binder)
chain: MLPAPKNLVVSRVTEDSARLSWTAPDAAFDSFYIAYAEPRPDGEAIVLVVPGSERSYDLTGLKPGTEYSVLIHGVKGGLLSSPLSAHFTT
On to B10, for which the “Apical domain:HSA” value in assay [1] is 480 ratio. In assay [2], the “hCD71:HSA” value was determined as 212 ratio. Also, the values for the RLU in assay [3] and in assay [4] were 4.83e+06 RLU and 2.13e+06 RLU, respectively.

B11: CD71-binding FN3 domain SEQ ID NO 367 (designed binder)
chain: MLPAPKNLVVSRVTEDSARLSWTAPDAAFDSFYIAYAEPRPDGEAILLVVPGSERSYDLTGLKPGTEYSVLIHGVKGGLLSSPLVAFFTT
On to B11, for which the “Apical domain:HSA” value in assay [1] is 66 ratio. Moreover, the “hCD71:HSA” value in assay [2] came out at 47 ratio. Moreover, the results for the RLU in assay [3] and in assay [4] were 6.51e+06 RLU and 4.62e+06 RLU, respectively.

B12: CD71-binding FN3 domain SEQ ID NO 374 (designed binder)
chain: MLPAPKNLVVSRVTEDSARLSWTAPDAAFDSFYIAYAEPRPDGEAIQLSVPGSERSYDLTGLKPGTEYSVLIHGVKGGLLSSPLHASFTT
For the molecule B12, in assay [1], the “Apical domain:HSA” value stood at 277 ratio. Further, the “hCD71:HSA” value in assay [2] came to 76 ratio. The RLU was 3.64e+06 RLU in assay [3] and 1e+06 RLU in assay [4].

B13: CD71-binding FN3 domain SEQ ID NO 386 (designed binder)
chain: MLPAPKNLVVSRVTEDSARLSWTAPDAAFDSFYIAYAEPRPDGEAITLLVPGSERSYDLTGLKPGTEYSVLIHGVKGGLLSSPLSAIFTT
For the molecule B13, in assay [1], the “Apical domain:HSA” value amounted to 400 ratio. Also, the “hCD71:HSA” value in assay [2] was found to be 130 ratio. Moreover, the RLU in assay [3] is 3.96e+06 RLU; in assay [4] it was 1.28e+06 RLU.

B14: CD71-binding FN3 domain SEQ ID NO 359 (designed binder)
chain: MLPAPKNLVVSRVTEDSARLSWTAPDAAFDSFLIPYAETSPSGEAIVLTVPGSERSYDLTGLKPGTEYSVLIHGVKGGDYSSPLSAIFTT
In the case of B14, the “Apical domain:HSA” value in assay [1] stood at 233 ratio. In addition, the “hCD71:HSA” value in assay [2] turned out to be 120 ratio. Moreover, the RLU in assay [3] was 6.97e+06 RLU; in assay [4], 3.57e+06 RLU.

B15: CD71-binding FN3 domain SEQ ID NO 403 (designed binder)
chain: MLPAPKNLVVSRVTEDSARLSWTAPDAAFDSFYIAYAEPRPDGEAIVLDVPGSERSYDLTGLKPGTEYSVLIHGVKGGLLSSPLVADFTT
Regarding B15, the “Apical domain:HSA” value in assay [1] was 342 ratio. In assay [2], the “hCD71:HSA” value is 233 ratio. The results for the RLU in assay [3] and in assay [4] were 5.34e+06 RLU and 3.64e+06 RLU, respectively.

B16: CD71-binding FN3 domain SEQ ID NO 381 (designed binder)
chain: MLPAPKNLVVSRVTEDSARLSWTAPDAAFDSFEIAYQELSLWGEAIVLTVPGSERSYDLTGLKPGTEYYVHIGGVKGGIWSRPLSAIFTT
Take B16: in assay [1], the “Apical domain:HSA” value worked out at 227 ratio. Also, the “hCD71:HSA” value in assay [2] worked out at 110 ratio. The RLU in assay [3] is 5.14e+06 RLU; in assay [4], 2.48e+06 RLU.

B17: CD71-binding FN3 domain SEQ ID NO 352 (designed binder)
chain: MLPAPKNLVVSRVTEDSARLSWTAPDAAFDSFEIAYQELSLWGEAIVLTVPGSERSYDLTGLKPGTEYYVHIGGVKGGIWSSPLSAIFTT
For the molecule B17, the “Apical domain:HSA” value in assay [1] is 144 ratio. For the same molecule, the “hCD71:HSA” value in assay [2] was found to be 63 ratio. In addition, the RLU in assay [3] came to 5.42e+06 RLU; in assay [4] it was 2.38e+06 RLU.

B18: CD71-binding FN3 domain SEQ ID NO 388 (designed binder)
chain: MLPAPKNLVVSRVTEDSARLSWTAPDAAFDSFEIAYFEYCLNGEAIVLTVPGSERSYDLTGLKPGTEYWVQIGGVKGGTWSWPLSAIFTT
B18: the “Apical domain:HSA” value in assay [1] came to 135 ratio. The “hCD71:HSA” value in assay [2] turned out to be 34 ratio. For the same molecule, the RLU worked out at 4.29e+06 RLU in assay [3] and 1.09e+06 RLU in assay [4].

B19: CD71-binding FN3 domain SEQ ID NO 348 (designed binder)
chain: MLPAPKNLVVSRVTEDSARLSWTAPDAAFDSFEISYFENTWYGEAIVLTVPGSERSYDLTGLKPGTEYVVWIGGVKGGLWSKPLSAIFTT
On to B19, for which the “Apical domain:HSA” value in assay [1] was determined as 302 ratio. In assay [2], the “hCD71:HSA” value was determined as 115 ratio. In addition, the RLU came to 4.8e+06 RLU in assay [3] and 1.83e+06 RLU in assay [4].

B20: CD71-binding FN3 domain SEQ ID NO 358 (designed binder)
chain: MLPAPKNLVVSRVTEDSARLSWTAPDAAFDSFEIGYWENAYKGEAIVLTVPGSERSYDLTGLKPGTEYVVFIGGVKGGVWSVPLSAIFTT
Regarding B20, in assay [1], the “Apical domain:HSA” value was 83 ratio. Besides, the “hCD71:HSA” value in assay [2] came to 39 ratio. Besides, the figures for the RLU in assay [3] and in assay [4] were 5.02e+06 RLU and 2.34e+06 RLU, respectively.

B21: CD71-binding FN3 domain SEQ ID NO 429 (designed binder)
chain: MLPAPKNLVVSRVTEDSARLSWTAPDAAFDSFEIGYFERSFYGEAIILFVPGSERSYDLTGLKPGTEYAVWIGGVKGGVWSRPLSAIFTT
For B21, in assay [1], the “Apical domain:HSA” value is 280 ratio. Moreover, the “hCD71:HSA” value in assay [2] is 124 ratio. Besides, the RLU in assay [3] is 4.39e+06 RLU; in assay [4], 1.95e+06 RLU.

B22: CD71-binding FN3 domain SEQ ID NO 440 (designed binder)
chain: MLPAPKNLVVSRVTEDSARLSWTAPDAAFDSFEIVYAEWTQHGEAIVLTVPGSERSYDLTGLKPGTEYYVHIGGVKGGKWSPPLYAIFTT
Consider B22, for which the “Apical domain:HSA” value in assay [1] came to 192 ratio. The “hCD71:HSA” value in assay [2] came out at 89 ratio. Further, the RLU in assay [3] amounted to 4.88e+06 RLU; in assay [4] it was 2.26e+06 RLU.

B23: CD71-binding FN3 domain SEQ ID NO 407 (designed binder)
chain: MLPAPKNLVVSRVTEDSARLSWTAPDAAFDSFEIAYFETCRTGEAIVLTVPGSERSYDLTGLKPGTEYRVWIGGVKGGVWSRPLSAIFTT
Regarding B23, in assay [1], the “Apical domain:HSA” value amounted to 61 ratio. Moreover, the “hCD71:HSA” value in assay [2] stood at 23 ratio. In addition, the RLU is 4.64e+06 RLU in assay [3] and 1.73e+06 RLU in assay [4].

B24: CD71-binding FN3 domain SEQ ID NO 390 (designed binder)
chain: MLPAPKNLVVSRVTEDSARLSWTAPDAAFDSFEIGYFERAWFGEAIVLTVPGSERSYDLTGLKPGTEYAVFIGGVKGGSYSYPLSAIFTT
B24: in assay [1], the “Apical domain:HSA” value was 131 ratio. Further, the “hCD71:HSA” value in assay [2] came out at 53 ratio. The values for the RLU in assay [3] and in assay [4] were 4.78e+06 RLU and 1.93e+06 RLU, respectively.

B25: CD71-binding FN3 domain SEQ ID NO 418 (designed binder)
chain: MLPAPKNLVVSRVTEDSARLSWTAPDAAFDSFEIAYFENSYYGEAIVLTVPGSERSYDLTGLKPGTEYAVYIGGVKGGSWSNPLSAISTT
As for B25, the “Apical domain:HSA” value in assay [1] is 77 ratio. In assay [2], the “hCD71:HSA” value was 30 ratio. Moreover, the RLU worked out at 5.05e+06 RLU in assay [3] and 1.95e+06 RLU in assay [4].

Source of the values: patent publication US20260151494A1 (ARO BIOTHERAPEUTICS, published 2026).
